Experimental data published in US20060073508.

Test system: hemagglutinin epitope-tagged Del301-303 human alpha-2B adrenergic receptor

For GRK2 (βARK1), the “agonist-promoted phosphorylation relative to wild-type” value was “the Del301-303 receptor displayed -56% of wild-type phosphorylation” and the “basal phosphorylation of the receptor” value was “Basal phosphorylation was equivalent between the two receptors”.
